The supplement of paper PMC9170038

Each sequence was assayed on MS2 coat protein (assay: apparent KD of MS2 coat protein; higher = weaker reporter binding). Details: Eterna round: R107; input ligand: none.
Summary of the method: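 Each design's apparent KD comes from the median of binding-curve fits to its normalised clusters. Those clusters carried RNA switches transcribed on-chip from Illumina sequencing clusters. SNAP-549-labelled MS2 coat protein was titrated onto them in twofold steps (0.7 or 1.5 nM to 3 µM; per step 0.8–1.5 h down to 10–20 min). Conditions were 100 mM Tris-HCl pH 7.5, 80 mM KCl, 4 mM MgCl2, without or with constant ligand.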

Sequence	apparent KD of MS2 coat protein
UGUAUGUGAUCUGAUACCAGAGUGACGCGAAAGCGAAACCUGAGGAUCACCCUGGUAAAACUCCCUUGGCAGCAGAUCGCAUACU	49.5 nM
UCGGGCAGAGCGGCCGCCACUGUUUGGCAUGCGGAUGACGGAACAUGAGGAUCACCCAUGUUGAUUAGGACCGGGCUUGCGGAGA [eefullin]	18.9 nM
CUAUAAAUAUGAAGGAGCGUCGAAAAUGGGUAAACAUGAGGAUCACCCAUGUAAAGGGAACGACAGGUAGGUCGCAUAUUUAUAG [AstromonsSSArgB#11]	180 nM
AUAUAUACAUGAGGAUCACCCAUGUUAUUUCGAGGACCGGUACGGCCGCCACUCGAUAGAGUAGAAGUAUUUUGGGAUAGUUGAU [JR_SSTryptoA_Sub015]	18.5 nM
AGCCAUGGAAACAUGGCGGCGGCUUGGGCGCGAGGACCGGUACGGCCGCCACUCGGGCAACAUGAGGAUCACCCAUGUUCCUCAU [ETA NP+V+V2 #18]	128 nM
UUUUUUUUUUACAUGAGGAUCACCCAUGUUCGAGGACCGGUACGGCCGCCACUCGUUUUUGUUGUGGUAGGGUUAGGGUUAGGGU [Turkey Lurky]	43.5 nM
CGGGCCGCUGCGGAUACCAGUUGAGCAUAGGUAGUGUAUGACAUGAGGAUCACCCAUGUUAACCCUUGGCAGCCGAGAGGGCAGA [theeternabot_exclusion_MS2_Theo_B_13]	11.6 nM
AGCGCAUCCGUAUAGGAUGCGCUCCAUGAAGGAGCGCGGGAAACCGCAGGUAGGUCGCGUGACAUGAGGAUCACCCAUGUGUAUU [#17 Same State - Arginine A]	20 nM
AGCUUGUAGUCGGCCGCCACUAAUAGGGAUCCUAUCGAGGCGGGUAACAUGAGGAUCACCCAUGUUAGGACCGGGACAGCGAGGA [Cetian]	16.6 nM
GCCGGGCCCGCGGCCGCCACUGAGAGAGUCGUGUGAACAUGAGGAUCACCCAUGUAAUAUAUAUACAGGACCGGGCGGGCCCGGC [4.X]	10.4 nM
GCGAUGGAGCGAAGGAGCGUGCUGGUACAUGAGGAUCACCCAUGUGAGUCGCAGCGCUAAGCACAGGUAGGUCGCGCUCCAUCGC [EAB NP+V+V2 #11]	28 nM
UAAUACCAGGUCAACGUACCAGGUGAUCAACGAGGACCGGUACGGCCGCCACUCGAAACAUGAGGAUCACCCAUGUAAGACCUGG [|T'-M'-Trp-Ms2|_Design 2_ML2]	134 nM
GGGACACCGAGAAGGAGCGCAUCCAAACCACACAUGAGGAUCACCCAUGUAUAAAUAUGCAUGCAGGUAGGUCGCUCGGCGUCUC [Orordionbi]	120 nM
GGUCUCGCGGGCGAUACCAGCUUGAUCGUACUGGCCUGGUACAUGAGGAUCACCCAUGUAAGCCCUUGGCAGCGCGCGCGAGACC [#1 Exclusion - Theophylline B Attempt #5 (HarryS)]	10.6 nM
UGUAUGUGAUCUGAUACCAGCCUCAUAGCUUGAGGAUCACCCAAGUGGAGCGGAAACGCUGGCCCUUGGCAGCAGAUCGCAUACU [TheoBS 1 #AlternativeMS2]	471 nM
CGGACAUGAGGAUCACCCAUGUACACUGAAGGAGCGUCGAGAACGACAGGUAGGUCGCAGGCUAAGGAAGGUGAUGCUCAAGAAG [Exclusion Arginine A GF5]	36.5 nM
AAAAUCCUACUUGAGGAUCACCCAGGUGAAGGAGCGCCCGAAAGGGCAGGUAGGUCGCACCUGAGGAUCACCCUGGUAAACCUAA [ArgEX 8 #DoubleMS2 #OpenEnded]	140 nM
AAAUAAAUACAUGAGGAUCACCCAUGUGAAGGAGCGCCCGUUAGGGCAGGUAGGUCGCGCAUGAAUAACUCCGUGCAAAAGCACA [ArgEX 19 #OpenEnded]	15.6 nM
UGCUACAUGAGGAUCACCCAUGUGGGUGAUACCAGCAUUCGUUUAUGCCCUUGGCAGCGCAGCCGAACCAAUCAUUCGGCAGAAA [Artiusar]	23 nM
UGUACUAUGUGAAGGAGCGCCACAUGAGGAUCACCCAUGUAAACAUGAGGAUCACCCAUGUGGCAGGUAGGUCGCACAUAGUACU [ArgBS - Double MS2 - I don't expect this to work]	108 nM

Same assay, conditions: Eterna round: R107; input ligand: theophylline 20 uM

Sequence	apparent KD of MS2 coat protein
AUCUAUAGAGCGGCCGCCACUGAAUACAUGAGGAUCACCCAUGUAAUGUUAAGGUGGUCCUAGCUCAGGACCGGGCUCUAUAGAU [Tryp B Ex t4]	60.6 nM
UGUAUGUGAUCUGAUACCAGAGUGACGCGAAAGCGAAACCUGAGGAUCACCCUGGUAAAACUCCCUUGGCAGCAGAUCGCAUACU	35.3 nM
UCGGGCAGAGCGGCCGCCACUGUUUGGCAUGCGGAUGACGGAACAUGAGGAUCACCCAUGUUGAUUAGGACCGGGCUUGCGGAGA [eefullin]	42.3 nM
GCACCAGGUACGGAUACCAGCUAUAGGUACAUGUCAGGACAUGAGGAUCACCCAUGUGGUAGCCCUUGGCAGCUGUACCUGGUGC [EThB NP+V+V2 #2]	26.3 nM
ACGUCCGGGUUAAUCGUGGGCAUGGUCGAUACCAGUAUUUUAAUCUACCCUUGGCAGCGACAUGAGGAUCACCCAUGUGCGAUGA [XTheo A #17]	22.8 nM
CUAUAAAUAUGAAGGAGCGUCGAAAAUGGGUAAACAUGAGGAUCACCCAUGUAAAGGGAACGACAGGUAGGUCGCAUAUUUAUAG [AstromonsSSArgB#11]	188 nM
AUAUAUACAUGAGGAUCACCCAUGUUAUUUCGAGGACCGGUACGGCCGCCACUCGAUAGAGUAGAAGUAUUUUGGGAUAGUUGAU [JR_SSTryptoA_Sub015]	30.7 nM
AGCCACUCGAGUGAUCCUCACGAGUGGCAACGAGGACCGGUACGGCCGCCACUCGAAUAACAUGAGGAUCACCCAUGUUUAUAAU [#01 Tryptophan A - Same State]	176 nM
AGAGCAUUGACGGCCGCCACUCAUGUCACAUGAGGAUCACCCAUGUGAUGGGUGAUAGCCCGGUUGAGGACCGGGUCAAUGCUCA [Omei Tryp SS B v1]	25.3 nM
AUAAAUAUAACCGAUACCAGCCUUAUACAUGAGGAUCACCCAUGUUAUGCUUCCUUUUUUGGCCCUUGGCAGCGGAAAUGGGUAA [AstrosSSTheB#2]	65.8 nM
AGCCAUGGAAACAUGGCGGCGGCUUGGGCGCGAGGACCGGUACGGCCGCCACUCGGGCAACAUGAGGAUCACCCAUGUUCCUCAU [ETA NP+V+V2 #18]	245 nM
UUUUUUUUUUACAUGAGGAUCACCCAUGUUCGAGGACCGGUACGGCCGCCACUCGUUUUUGUUGUGGUAGGGUUAGGGUUAGGGU [Turkey Lurky]	92 nM
CAAUAAGUAACUGAUACCAGUGUACUGACAUGAGGAUCACCCAUGUUGGGUUUUGUUGUACACCCUUGGCAGCAGAAUCUUAUUG [AstrosExyTheB#12]	67.2 nM
CGGGCCGCUGCGGAUACCAGUUGAGCAUAGGUAGUGUAUGACAUGAGGAUCACCCAUGUUAACCCUUGGCAGCCGAGAGGGCAGA [theeternabot_exclusion_MS2_Theo_B_13]	20.2 nM
AUUCAUGGAAACAUGACAUAGGGAUCUAGCCGAGGACCGGUACGGCCGCCACUCGCUUGGAGGCACAUGAGGAUCACCCAUGUUA [SS Tryp A #6]	140 nM
AGCGCAUCCGUAUAGGAUGCGCUCCAUGAAGGAGCGCGGGAAACCGCAGGUAGGUCGCGUGACAUGAGGAUCACCCAUGUGUAUU [#17 Same State - Arginine A]	27.7 nM
ACAUGAGGAUCACCCAUGUUCCUCUUUGAUACCAGUGAGUUGUUUCGCCCUUGGCAGCGAGUUUUUUUUUUUUUGUUUUGUUUGG [6.R]	351 nM
AGCUUGUAGUCGGCCGCCACUAAUAGGGAUCCUAUCGAGGCGGGUAACAUGAGGAUCACCCAUGUUAGGACCGGGACAGCGAGGA [Cetian]	15.4 nM
AGACAUGAGGAUCACCCAUGUAGCAUGGAUACCAGAUGUAGAUUUAUCCCUUGGCAGCUGUGGUAAAGUGAUGCAUUGCUCCUAG [Exclusion - Theophylline A (Freestyle 5)]	50.1 nM
